Reference: article PMC8444507

Legend:
[1] = biological target: SARS-CoV spike receptor-binding domain (S-RBD), wild-type (SARS-CoV) (UniProt P59594)
[2] = biological target: SARS-CoV-2 spike receptor-binding domain (S-RBD), wild-type (SARS-CoV-2) (UniProt P0DTC2)

Row | Substance | IC50 of entry inhibition, SARS-CoV pseudovirus on HEK293T-ACE2 cells [1] [µg/mL] | IC50 of entry inhibition, wild-type SARS-CoV-2 pseudovirus on HEK293T-ACE2 cells [2] [µg/mL]
1 | ACE2[W27/Y330]-Fc (from UniProt Q9BYF1 19-615) (Fc fusion) | 1.04 | 0.25
2 | ACE2[W19/Y330]-Fc (from UniProt Q9BYF1 19-615) (Fc fusion) | 0.34 | 0.09
3 | ACE2[W19/W27/Y330]-Fc (from UniProt Q9BYF1 19-615) (Fc fusion) | 0.49 | 0.53
